Earlier results in publication PMC6292179.

Target: IL-18BP (Homo sapiens) (UniProt O95998)
Sequence (O95998 31-194): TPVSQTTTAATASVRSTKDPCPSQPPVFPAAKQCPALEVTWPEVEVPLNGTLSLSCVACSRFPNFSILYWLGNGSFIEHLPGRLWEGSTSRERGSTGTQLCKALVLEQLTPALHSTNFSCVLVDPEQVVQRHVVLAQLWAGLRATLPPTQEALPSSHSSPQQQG

Chain of IL-18 (Q14116 37-193): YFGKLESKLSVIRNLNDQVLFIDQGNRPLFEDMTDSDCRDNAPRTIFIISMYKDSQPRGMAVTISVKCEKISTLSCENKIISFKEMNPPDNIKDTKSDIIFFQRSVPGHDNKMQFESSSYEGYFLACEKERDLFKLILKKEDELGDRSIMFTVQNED

Substance: IL-18 (from UniProt Q14116)
- Kd: 0.4 nM
